# Experimental data reported in article PMC9569990 (International Journal of Molecular Sciences, 2022).
# T1: Granulocyte colony-stimulating factor (human, UniProt P09919-2 31-204)
# T1 construct: Granulocyte colony-stimulating factor, human, UniProt P09919; No catalogue number (n/a); also called G-CSF; source: bought: Pharmstandard (Russia) (source E. coli)
# T1 sequence (looked up): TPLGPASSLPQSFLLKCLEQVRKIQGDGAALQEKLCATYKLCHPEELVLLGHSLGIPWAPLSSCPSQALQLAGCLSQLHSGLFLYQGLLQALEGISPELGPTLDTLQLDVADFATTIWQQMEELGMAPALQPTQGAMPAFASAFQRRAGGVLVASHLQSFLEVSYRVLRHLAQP
# T2: Prolactin (human, UniProt P01236 29-227)
# T2 construct: Prolactin, human, UniProt P01236; see the manufacturer's catalogue number; also called PRL; source: bought: PeproTech (source E. coli)
# T2 sequence (looked up): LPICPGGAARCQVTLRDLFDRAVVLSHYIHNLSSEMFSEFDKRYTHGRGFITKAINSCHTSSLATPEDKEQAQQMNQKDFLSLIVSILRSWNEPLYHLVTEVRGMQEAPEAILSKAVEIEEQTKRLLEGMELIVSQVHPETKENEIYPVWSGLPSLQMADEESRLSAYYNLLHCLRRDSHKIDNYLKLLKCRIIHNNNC
# T3: Interleukin-3 (human, UniProt P08700 20-152)
# T3 construct: Interleukin-3, human, UniProt P08700; see the manufacturer's catalogue number; also called IL-3; source: bought: SCI-Store (Russia) (source CHO)
# T3 sequence (looked up): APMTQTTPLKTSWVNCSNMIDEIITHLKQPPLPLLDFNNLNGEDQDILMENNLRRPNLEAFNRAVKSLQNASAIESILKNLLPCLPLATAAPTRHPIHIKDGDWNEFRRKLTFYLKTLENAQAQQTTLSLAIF
# T4: Interleukin-26 (human, UniProt Q9NPH9 22-171)
# T4 construct: Interleukin-26, human, UniProt Q9NPH9; see the manufacturer's catalogue number; also called IL-26; source: bought: R&D Systems (source E. coli)
# T4 sequence (looked up): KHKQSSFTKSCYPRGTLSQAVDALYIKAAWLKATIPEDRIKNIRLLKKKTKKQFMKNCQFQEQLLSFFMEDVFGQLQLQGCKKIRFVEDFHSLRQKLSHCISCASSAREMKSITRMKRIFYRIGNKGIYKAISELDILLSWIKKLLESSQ
# B1: Human S100P protein (recombinant, Ca^2+-loaded) (natural protein)
# chain: MTELETAMGMIIDVFSRYSGSEGSTQTLTKGELKVLMEKELPGFLQSGKDKDAVDKLLKDLDANGDAQVDFSEFIVFVAAITSACHKYFEKAGLK
# notes: S100P protein, human, recombinant; probably the whole 95-residue protein (surmise); also called wild-type S100P; WT S100P; source: E. coli, prepared as previously described [28]
# Tests used:
# Assay in all cases: SPR; cytokine immobilised on ProteOn GLH sensor chip by amine coupling (9,000-14,000 RU); S100P (wild type or mutant) as analyte, 62 nM-16 µM; 25 °C; 10 mM HEPES, 150 mM NaCl, 1 mM CaCl2, 0.05% TWEEN 20, pH 7.4; heterogeneous ligand model (two ligand populations), one-site model for IL-13; values averaged over analyte concentrations (n = 3-5)
# Conditions in all cases: both partners purified
# [1] = target: T1, Granulocyte colony-stimulating factor
# Prolactin = target: T2, Prolactin
# Interleukin-3 = target: T3, Interleukin-3
# Interleukin-26 = target: T4, Interleukin-26
# Somatotropin = target: T5, Somatotropin (human, UniProt P01241 27-217)
# T5 construct: Somatotropin (growth hormone), human, UniProt P01241; see the manufacturer's catalogue number; also called GH; growth hormone; source: bought: PeproTech (source E. coli)
# T5 sequence (P01241 27-217): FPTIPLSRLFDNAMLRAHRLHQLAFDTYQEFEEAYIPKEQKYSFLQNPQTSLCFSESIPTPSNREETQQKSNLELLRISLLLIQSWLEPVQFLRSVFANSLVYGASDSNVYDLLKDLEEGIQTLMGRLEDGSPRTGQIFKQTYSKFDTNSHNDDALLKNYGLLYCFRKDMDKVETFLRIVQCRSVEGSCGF
# Interleukin-13 = target: T6, Interleukin-13 (human, UniProt P35225 25-146)
# T6 construct: Interleukin-13, human, UniProt P35225; see the manufacturer's catalogue number; also called IL-13; source: bought: PeproTech (source E. coli)
# T6 sequence (P35225 25-146): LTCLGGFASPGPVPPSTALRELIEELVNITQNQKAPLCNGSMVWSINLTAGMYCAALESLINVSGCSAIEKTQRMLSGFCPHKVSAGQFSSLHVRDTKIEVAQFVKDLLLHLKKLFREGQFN
binder,measurement,setting,value
B1,"Kd1 (heterogeneous ligand model, population 1)",[1],213 nM
same,"Kd2 (heterogeneous ligand model, population 2)",[1],854 nM
same,"kd1 (heterogeneous ligand model, population 1)",[1],0.000315 s⁻¹
same,"kd2 (heterogeneous ligand model, population 2)",[1],0.0154 s⁻¹
same,"Kd1 (heterogeneous ligand model, population 1)",Prolactin,54.6 nM
same,"Kd2 (heterogeneous ligand model, population 2)",Prolactin,906 nM
same,"kd1 (heterogeneous ligand model, population 1)",Prolactin,0.000981 s⁻¹
same,"kd2 (heterogeneous ligand model, population 2)",Prolactin,0.0103 s⁻¹
same,"Kd1 (heterogeneous ligand model, population 1)",Interleukin-3,23.2 nM
same,"Kd2 (heterogeneous ligand model, population 2)",Interleukin-3,579 nM
same,"kd1 (heterogeneous ligand model, population 1)",Interleukin-3,0.000627 s⁻¹
same,"kd2 (heterogeneous ligand model, population 2)",Interleukin-3,0.00529 s⁻¹
same,"Kd1 (heterogeneous ligand model, population 1)",Interleukin-26,9.02 nM
same,"Kd2 (heterogeneous ligand model, population 2)",Interleukin-26,1.32 µM
same,"kd1 (heterogeneous ligand model, population 1)",Interleukin-26,0.000144 s⁻¹
same,"kd2 (heterogeneous ligand model, population 2)",Interleukin-26,0.00509 s⁻¹
same,"Kd1 (heterogeneous ligand model, population 1)",Somatotropin,42.9 nM
same,"Kd2 (heterogeneous ligand model, population 2)",Somatotropin,266 nM
same,"kd1 (heterogeneous ligand model, population 1)",Somatotropin,0.000669 s⁻¹
same,"kd2 (heterogeneous ligand model, population 2)",Somatotropin,0.0142 s⁻¹
same,Kd,Interleukin-13,2300 nM
same,koff,Interleukin-13,0.0183 s⁻¹
